Our source for the Reference capacity after 100 cycles (remaining IgG binding capacity), Capacity after 100 cycles (remaining IgG binding capacity) and Capacity relative to Ref values is patent publication US20230391850A1.

Assay [1] concerns the target human polyclonal IgG (Gammanorm) (human). Briefly: Biacore SPR, reference ligand on CM5 chip, 1 mg/ml human polyclonal IgG; signal left after 100 cycles of 10 min in 0.5 M NaOH (run beside SEQ ID NO 8). (In SPR one partner is held on a chip, and binding of the other changes the refractive index at the surface.)
Assay [2] shares this target. Briefly: Biacore SPR, reference ligand on CM5 chip, 1 mg/ml human polyclonal IgG; signal left after 100 cycles of 10 min in 0.5 M NaOH (run beside SEQ ID NO 9).
The target is the same in assay [3]. Briefly: Biacore SPR, ligand on CM5 chip, 1 mg/ml human polyclonal IgG flowed over; signal left after 100 cycles of 10 min in 0.5 M NaOH.
Assay [4] shares this target. Briefly: Biacore SPR, remaining IgG binding capacity after 100 NaOH cycles as a ratio to the reference ligand SEQ ID NO: 12.

In the case of “Zvar(Q9A,N11E,Q40V,A42K,N43A,L44Di (SEQ ID NO: 12) (designed binder)”, the Reference capacity after 100 cycles (remaining IgG binding capacity) in assay [1] worked out at 65%; in assay [2] it was 64%.
In turn, “Zvar(Q9A, N11R, Q40V, A42K, N43A, L44I)1 (designed binder)” showed a Capacity after 100 cycles (remaining IgG binding capacity) in assay [3] of 74%. Moreover, the Capacity relative to Ref in assay [4] was found to be 1.14.
Regarding “Zvar(Q9W, N11E, Q40V, A42K, N43A, L44I)1 (designed binder)”, the Capacity after 100 cycles (remaining IgG binding capacity) in assay [3] came out at 70%. Moreover, the Capacity relative to Ref in assay [4] came out at 1.09.
